Where two headings read alike, the source gives them in different places.

Assay [1] concerns the target T1, SIRPα V1-his (ACRO, Cat #SIA-H5225) (human, UniProt P78324 31-370).
T1 construct: not shown: His tag
Kind of assay: ELISA. (An ELISA detects its analyte on a solid surface through an enzyme-linked reagent.)

Assay [2] has as its target T2, SIRPβ-his (Novoprotein, Cat #CS93) (UniProt O00241 30-371, limits assumed). Kind of assay: ELISA.
Assay [3] addresses T3, SIRPα-V8 on stably transfected cells (Homo sapiens (Human), UniProt P78324 31-504).
T3 construct: also called CHOZN-SIRPα-V8; 293T-SIRPα-V8
Kind of assay: FACS on cells carrying the target. Here is the method:
(§1) After washing, cells were stained with 0.2 μg goat anti-hIgG Fc-AF488 (Jackson ImmunoResearch, Cat #109-546-170) at 4° C. for 30 min. After washing again, cells were resuspended in 50 μL of DPBS/1% FBS and analyzed by FlowJo V10 and GraphPad Prism6 software.

Assay [4] concerns the target T4, SIRPα-V1 on 293T-SIRPα-V1 cells (human, UniProt P78324 31-504).
T4 construct: Stably transfected cell line
Kind of assay: FACS on cells carrying the target. On the procedure: as §1

In assay [5] the target is T5, SIRPα-V2 on CHOZN-SIRPα-V2 cells (Homo sapiens (Human), UniProt P78324 31-504). Kind of assay: FACS on cells carrying the target. Here is the method:
as §1

Assay [6] addresses T1, SIRPα V1-his (ACRO, Cat #SIA-H5225). Kind of assay: BLI (Octet RED 96), His-tagged antigen on Ni-NTA sensor, antibody in solution. On the procedure: (§2) SIRPα V1-his (ACRO, Cat #SIA-H5225), SIRPα V2-his (made by transient transfection of HEK293F cells according to SEQ ID NO:38 sequence), SIRPβ-his (Novoprotein, Cat #CS93), SIRPγ-his (Sino Biological, Cat #11828-H08H) or cynomolgus macaques SIRPα-his (ACRO, Cat #SIA-C52H7) at 5 μg/mL was loaded to a Ni-NTA biosensor for 600 s. […] The data were fitted to calculate the affinity.
Background: Biolayer interferometry detects binding as a change in optical thickness at a sensor tip.

Assay [7] addresses T6, SIRPα V2-his (made by transient transfection of HEK293F cells according to SEQ ID NO:38) (Homo sapiens (Human), UniProt P78324 31-373).
T6 construct: it is the full-length precursor, starting with MEPAG... and including the transmembrane and cytoplasmic parts; not shown: His tag
The assay is described as above. On the procedure:
as §2

For assay [8], the target named is T2, SIRPβ-his (Novoprotein, Cat #CS93). The assay is described as above. On the procedure: as §2
Assay [9] addresses SIRPγ-his (Sino Biological, Cat #11828-H08H) (UniProt Q9P1W8 29-360). Described as above. Here is the method: as §2
Assay [10] has as its target T1, SIRPα V1-his (ACRO, Cat #SIA-H5225). Kind of assay: competition ELISA: coated SIRPα-V1-his, antibody titrated against biotin-CD47, streptavidin-HRP (panel SIRPα-V1-CD47).
The target of assay [11] is T6, SIRPα V2-his (made by transient …). The assay can be described thus: competition ELISA: coated SIRPα-V2-his, antibody titrated against biotin-CD47, streptavidin-HRP (panel SIRPα-V2-CD47).
The target of assay [12] is T7, SIRPγ on cells (Jurkat cells) (UniProt Q9P1W8 29-387).
T7 construct: whole, on cells
The assay can be described thus: FACS titration on SIRPγ-carrying cells, goat anti-hIgG-AF488 (panel SIRPγ).

Assay [13] addresses T4, SIRPα-V1 on 293T-SIRPα-V1 cells. The assay can be described thus: FACS titration on 293T-SIRPα-V1 cells, goat anti-hIgG-AF488 (panel SIRPα-V1). Here is the method: (§3) After washing, cells were stained by 0.2 μg of goat anti-hIgG-AF488 at 4° C. for 30 min, resuspended in […] of DPBS/1% FBS, and analyzed by FlowJo V10 and GraphPad Prism6 software.
The target of assay [14] is T3, SIRPα-V8 on stably transfected cells. The assay can be described thus: FACS titration on 293T-SIRPα-V8 cells, goat anti-hIgG-AF488 (panel SIRPα-V8). Here is the method:
as §3

The target of assay [15] is T1, SIRPα V1-his (ACRO, Cat #SIA-H5225). Kind of assay: ELISA: coated SIRPα-V1-his, antibody titrated, goat anti-hIgG Fc HRP (panel SIRPα-V1). Here is the method: (§4) 100 μL of 1 μg/mL of SIRPα-V1-his, SIRPα-V2-his and SIRPα-V8-his (Sino Biological, Cat #30015-H08H) were coated overnight at 4° C. in Maxisorp ELISA 96-well plates. […] After washing, 100 μL of 1:5000 dilution of goat Anti-hIgG Fc HRP (Invitrogen, Cat #A18823) was added to each well and incubated for 1 h. TMB substrate was used for color development and enzyme marker readings.

Assay [16] has as its target T8, SIRPα-V8-his (Sino Biological, Cat #30015-H08H).
T8 construct: The His tag belongs to the same chain; not shown: exact C-terminal limit of the vendor's construct
Kind of assay: ELISA: coated SIRPα-V8-his, antibody titrated, goat anti-hIgG Fc HRP (panel SIRPα-V8). On the procedure:
as §4

Assay [17] deals with T9, cynomolgus macaques SIRPα-his (ACRO, Cat #SIA-C52H7) (cynomolgus macaque, UniProt A0A2K5VYQ9 31-369).
T9 construct: also called Monkey SIRPα; cynomolgus macaque SIRPα
T9 sequence: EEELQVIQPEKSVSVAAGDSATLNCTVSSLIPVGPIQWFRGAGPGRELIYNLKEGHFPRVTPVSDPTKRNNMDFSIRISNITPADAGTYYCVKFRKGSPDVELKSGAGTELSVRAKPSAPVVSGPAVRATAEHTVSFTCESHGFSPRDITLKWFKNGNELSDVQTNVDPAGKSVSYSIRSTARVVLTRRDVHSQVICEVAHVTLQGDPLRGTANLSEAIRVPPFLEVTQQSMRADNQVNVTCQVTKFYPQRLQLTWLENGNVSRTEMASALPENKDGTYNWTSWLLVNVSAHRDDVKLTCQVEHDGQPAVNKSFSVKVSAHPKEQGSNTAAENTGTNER
The assay can be described thus: ELISA: coated cynomolgus macaques SIRPα-his, antibody titrated, goat anti-hIgG Fc HRP (left panel). On the procedure:
100 μL of 1 μg/mL of cynomolgus macaques SIRPα-his were coated overnight at 4° C. in Maxisorp ELISA 96-well plates. […] After washing, each well was incubated with 100 μL of 1:5000-fold diluted goat anti-hIgG Fc HRP for 1 h at 37° C. and then substrate TMB, and read by an enzyme marker.

Assay [18] deals with T4, SIRPα-V1 on 293T-SIRPα-V1 cells. Kind of assay: competition FACS: 293T-SIRPα-V1 cells, antibody titrated against CD47-FITC, % of blocking (panel SIRPα-V1-CD47). On the procedure: (§5) After washing, cells were analyzed by utilizing FlowJo V10 and GraphPad Prism6 software.
For assay [19], the target named is T3, SIRPα-V8 on stably transfected cells. Kind of assay: competition FACS: 293T-SIRPα-V8 cells, antibody titrated against CD47-FITC, % of blocking (panel SIRPα-V8-CD47). Here is the method:
as §5

In assay [20] the target is T5, SIRPα-V2 on CHOZN-SIRPα-V2 cells. Kind of assay: competition FACS: CHOZN-SIRPα-V2 cells, antibody titrated against CD47-FITC, % of blocking (panel SIRPα-V2-CD47). On the procedure:
as §5

Assay [21] deals with T1, SIRPα V1-his (ACRO, Cat #SIA-H5225). Kind of assay: competition ELISA: coated SIRPα-V1-his, antibody titrated against biotin-CD47, streptavidin-HRP (panel SIRPα-V1-CD47). On the procedure:
100 μL of 1 μg/mL of recombinant SIRPα-V1-his and SIRPα-V2-his were coated overnight at 4° C. in Maxisorp ELISA 96-well plates. […] After washing, each well was added with 0.2 μg Streptavidin-HRP, substrate TMB, and read by an enzyme marker.
The source holds these as a separate data set.

Assay [22] has the same target. The assay can be described thus: BLI (ForteBio Octet RED 96): SIRPα V1-his on Ni-NTA biosensor, antibody in a 1:2 series of 7 concentrations (row SIRPα-V1). Here is the method: 5 μg/mL SIRPα V1-his and SIRPα V2-his was loaded to a Ni-NTA biosensor for 600 s, respectively. […] The binding time was 200 s and the dissociation time was 600 s. The data were fitted to calculate the affinity.

For assay [23], the target named is T4, SIRPα-V1 on 293T-SIRPα-V1 cells. The assay can be described thus: FACS titration on 293T-SIRPα-V1 cells, goat anti-hIgG-AF488 (panel SIRPα-V1). Here is the method:
(§6) 2×10⁵ per well of stable transfer construct cell lines 293T-SIRPα-V1 (SEQ ID NO: 2), CHOZN-SIRPα-V2 (SEQ ID NO: 38), and CHOZN-SIRPα-V8 (SEQ ID NO: 39) in logarithmic phase were dispended in 96-well U-shaped culture plates, […] After washing, the cells were incubated with 0.2 μg of goat anti-hIgG-AF488 for 30 min at 4° C., then resuspended in 50 μL of DPBS/1% FBS and analyzed by flow cytometry with FlowJo V10 and GraphPad Prism6 software.
This is another data set of the same source.

The target in assay [24] is T3, SIRPα-V8 on stably transfected cells. The assay can be described thus: FACS titration on CHOZN-SIRPα-V8 cells, goat anti-hIgG-AF488 (panel SIRPα-V8). On the procedure:
as §6

B1: 18D5 (antibody, V domains shown)
VH: QVQLQQPGAELVRPGSSVKLSCKASGYTFTSYWVHWVKQRPIQGLEWIGNIDPSDSDTHYNQKFKDKASLTVDKSSSTAYMQLSSLTFEDSAVYYCVRGGTGTMAWFAYWGQGTLVTVSA
VL: DVVMTQTPLSLPVSLGDQASISCRSSQSLVHSYGNTYLYWYLQKPGQSPKLLIYRVSNRFSGVPDRFSGSGSGTDFTLKISRVEAEDLGVYFCFQGTHVPYTFGSGTKLEIK
As to B1, the EC50 (usually the midpoint of the concentration-response curve) was determined as 0.13 nM in [1]; 0.196 nM in assay [2]; 8.76 nM in [3]; 1.08 nM in assay [4]; 3.65 nM in assay [5]. In addition, the Kd (as a rule, a measure of binding affinity in units of concentration) in assay [6] is 0.115 nM; in assay [7], 1.07 nM; in assay [8] it was 0.0137 nM; in [9], 1.23 nM. The koff – broadly, a measure of how fast the partners let go of each other – is 7.76e-05 s⁻¹ in assay [6], 0.000601 s⁻¹ in assay [7], 2.36e-05 s⁻¹ in assay [8] and 0.000896 s⁻¹ in [9]. The kon (as a rule, the rate constant with which the complex forms) was 674000 M⁻¹ s⁻¹ in assay [6], 561000 M⁻¹ s⁻¹ in assay [7], 1.72e+06 M⁻¹ s⁻¹ in assay [8] and 728000 M⁻¹ s⁻¹ in [9]. The entries for the “IC50 (read off the curve)” value in assay [10] and in assay [11] were ~20 nM and ~30 nM, respectively.

B2: H7L4-G1 (antibody, human IgG1, kappa)
heavy: not shown
light: DIVLTQSPASLAVSPGQRATITCRASESVDSYGNSFMHWYQQKPGQPPKPLIYLASNLESGVPARFSGSGSGTDFTLTINPVEANDAANYYCQQNNEYPWTFGGGTKVEIKRTVAAPSVFIFPPSDEQLKSGTASVVCLLNNFYPREAKVQWKVDNALQSGNSQESVTEQDSKDSTYSLSSTLTLSKADYEKHKVYACEVTHQGLSSPVTKSFNRGEC
notes: Humanized antibody with wild type human IgG1 and kappa; also called H7L4-G1w
With B2, the binding result in assay [12] was “binds”. The EC50 (read off the curve) (in general, the midpoint of the concentration-response curve) in assay [13] is ~0.5 nM; in assay [14] it was ~0.8 nM; in assay [15] it was ~0.03 nM; in assay [16] it was ~0.02 nM; in [17], ~0.04 nM. Also, the “IC50 (read off the curve)” value in assay [18] is ~0.2 nM; in assay [19], ~10 nM; in assay [20], ~0.1 nM; in assay [21], ~3 nM. Also, the Kd in [22] was < 0.001 nM. The koff in assay [22] was < 1e-07 s⁻¹.

B3: H7L4-G1lala (antibody, human IgG1, kappa, L234A L235A)
heavy: not shown
light: B2 light
notes: also called humanized antibody H7L4
As for B3, in assay [12], the binding result is “binds”. Also, the “EC50 (read off the curve)” value in assay [23] was ~3 nM; in assay [13], ~0.4 nM; in assay [14], ~0.6 nM; in [24], ~0.6 nM; in assay [15] it was ~0.03 nM; in assay [16], ~0.02 nM. Also, the “EC50 (read off the curve)” value in assay [17] was ~0.04 nM. The “IC50 (read off the curve)” value is ~0.1 nM in assay [18], ~7 nM in assay [19], ~0.2 nM in assay [20] and ~3 nM in assay [21]. For the same molecule, the Kd in [22] was < 0.001 nM. The koff in assay [22] was < 1e-07 s⁻¹.
